Experiment in all cases: yeast two-hybrid, AtGID1 bait and AtDELLA prey, 10^-5 M GA4 in medium; colony growth (Assay A) and beta-galactosidase activity (Assay B)
For assay [1], the target named is T1, RGA (Arabidopsis DELLA protein), yeast two-hybrid prey in pGADT7 AD vector (Arabidopsis, UniProt Q9SLH3 1-587).
T1 construct: also called AtDELLA
T1 sequence (looked up): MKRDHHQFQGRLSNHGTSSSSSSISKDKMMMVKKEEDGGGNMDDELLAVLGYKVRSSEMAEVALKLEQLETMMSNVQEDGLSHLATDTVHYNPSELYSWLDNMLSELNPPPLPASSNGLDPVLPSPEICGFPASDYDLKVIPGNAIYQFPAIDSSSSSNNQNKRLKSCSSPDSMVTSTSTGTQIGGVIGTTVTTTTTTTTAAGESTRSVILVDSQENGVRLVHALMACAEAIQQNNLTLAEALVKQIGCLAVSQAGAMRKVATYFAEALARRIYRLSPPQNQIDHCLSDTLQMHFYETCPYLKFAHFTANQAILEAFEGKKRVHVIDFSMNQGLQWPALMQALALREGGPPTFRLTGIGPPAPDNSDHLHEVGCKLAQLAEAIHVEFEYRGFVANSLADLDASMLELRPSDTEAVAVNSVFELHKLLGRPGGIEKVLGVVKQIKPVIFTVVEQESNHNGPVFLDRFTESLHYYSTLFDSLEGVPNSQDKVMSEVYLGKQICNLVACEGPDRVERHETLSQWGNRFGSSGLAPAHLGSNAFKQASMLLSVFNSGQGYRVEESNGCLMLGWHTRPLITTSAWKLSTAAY
The procedure: (§1) Panel A) depicts AtGID1-AtDELLA interaction in the presence of GA in two types of yeast hybrid (Y2H) assays. Each AtGID1 was used as a bait while AtDELLA was a prey. GA₄ (10⁻⁵ M) was added to the medium. The bars indicates β-galactosidase activity when o-nitrophenol-β-D-galactopyranoside was used as a substrate (Assay B). The growth of each transformant in the defined medium for 2 days (Assay A) is shown beneath of each bar graph. The experiment was carried out in quadruplicate. The SD value shown in the figure was determined from three measurements. Panel B) depicts the dose response in AtGID1-RGA interaction in Assay B of Y2H. GA₄ (10⁻⁵ to 10⁻⁹ M) was added to the medium. The experiment was conducted in duplicates. The SD value shown in the figure was determined from three measurements. Panel C) depicts the results of an evaluation of the in vitro GA-binding potency of AtGID1 using AtDELLA. Left panel, 15 minutes after mixing AtGID1c (C), tritiated GA, with an excess amount of non-labeled GA (+) or without non-labeled GA (−). GAI (G) or RGA (R) was added, and then the GA-binding activity in each reaction mixture was measured according to the standard method. Recombinant protein originating from the vector (v) was used as a negative control. The experiment was carried out in duplicates. The SD value was determined from three measurements. Right panel, a profile of Western blotting for recombinant AtDELLA using an antibody to His tag. G, GAI; R, RGA; v, vector; M, molecular weight marker.
(§2) Arabidopsis has five DELLA proteins (RGA, GAI, RGL1, RGL2, and RGL3; collectively designated AtDELLA; Fleet, C. M., and Sun, T.-P. (2005) Curr. Opin. Plant Biol., 8, 77-85; Dill, A., and Sun, T. (2001) Genetics, 159, 777-785); therefore, there are 15 possible combinations of GID1/DELLA proteins. To verify the positive interactions between AtGID1-AtDELLA, two experiments were conducted using the yeast two hybrid (Y2H) system. […] In the second experiment (Assay B), β-galactosidase activity was measured, as reporter gene product of AtGID1-AtDELLA interactions. […]

The target in assay [2] is T2, GAI (Arabidopsis DELLA protein), yeast two-hybrid prey in pGADT7 AD vector (Arabidopsis, UniProt Q9LQT8 1-533).
T2 construct: also called AtDELLA
T2 sequence (looked up): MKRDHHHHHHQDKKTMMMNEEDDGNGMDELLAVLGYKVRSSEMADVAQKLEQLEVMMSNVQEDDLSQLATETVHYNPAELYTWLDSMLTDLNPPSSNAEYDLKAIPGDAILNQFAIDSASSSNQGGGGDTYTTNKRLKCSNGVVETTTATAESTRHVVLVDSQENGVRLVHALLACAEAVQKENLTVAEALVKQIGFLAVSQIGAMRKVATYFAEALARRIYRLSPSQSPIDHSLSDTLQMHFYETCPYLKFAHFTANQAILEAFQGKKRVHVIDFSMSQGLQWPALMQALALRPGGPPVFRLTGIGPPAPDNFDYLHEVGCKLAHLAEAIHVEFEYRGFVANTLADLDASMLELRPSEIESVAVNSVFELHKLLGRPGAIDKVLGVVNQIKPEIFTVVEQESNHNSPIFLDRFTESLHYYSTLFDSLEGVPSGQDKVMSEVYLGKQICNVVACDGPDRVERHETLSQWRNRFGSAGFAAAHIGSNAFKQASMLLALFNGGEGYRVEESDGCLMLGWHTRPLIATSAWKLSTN
The procedure:
as §1, §2

Assay [3] concerns the target T3, RGL3 (Arabidopsis DELLA protein), yeast two-hybrid prey in pGADT7 AD vector (Arabidopsis, UniProt Q9LF53 1-523).
T3 construct: also called AtDELLA
T3 sequence (looked up): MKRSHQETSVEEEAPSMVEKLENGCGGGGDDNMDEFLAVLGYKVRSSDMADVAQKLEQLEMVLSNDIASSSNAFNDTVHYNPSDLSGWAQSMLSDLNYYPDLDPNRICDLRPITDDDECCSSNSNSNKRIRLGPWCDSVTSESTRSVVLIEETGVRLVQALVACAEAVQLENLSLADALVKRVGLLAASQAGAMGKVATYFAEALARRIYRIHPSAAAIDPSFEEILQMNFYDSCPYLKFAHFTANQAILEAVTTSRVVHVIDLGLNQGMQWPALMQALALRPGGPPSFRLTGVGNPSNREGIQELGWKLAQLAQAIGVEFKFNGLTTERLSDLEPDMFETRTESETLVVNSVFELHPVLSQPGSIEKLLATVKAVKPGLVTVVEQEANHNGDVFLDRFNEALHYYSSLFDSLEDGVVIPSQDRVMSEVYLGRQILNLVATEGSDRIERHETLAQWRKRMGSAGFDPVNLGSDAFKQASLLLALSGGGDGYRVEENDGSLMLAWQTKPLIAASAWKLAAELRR
The procedure: as §1, §2

B1: AtGID1a (At3g05120), yeast two-hybrid bait in pGBKT7 DNA-BD vector (receptor, not shown: small tags and cut ends)
chain: MAASDEVNLIESRTVVPLNTWVLISNFKVAYNILRRPDGTFNRHLAEYLDRKVTANANPVDGVFSFDVLIDRRINLLSRVYRPAYADQEQPPSILDLEKPVDGDIVPVILFFHGGSFAHSSANSAIYDTLCRRLVGLCKCVVVSVNYRRAPENPYPCAYDDGWIALNWVNSRSWLKSKKDSKVHIFLAGDSSGGNIAHNVALRAGESGIDVLGNILLNPMFGGNERTESEKSLDGKYFVTVRDRDWYWKAFLPEGEDREHPACNPFSPRGKSLEGVSFPKSLVVVAGLDLIRDWQLAYAEGLKKAGQEVKLMHLEKATVGFYLLPNNNHFHNVMDEISAFVNAEC
notes: Bait fusion for the Y2H assays (BD Matchmaker Two-hybrid System 3); also called Arabidopsis GID1
With B1, the binding result in assay [1] and in assay [2] was “binds” throughout.

B2: AtGID1b (At3g63010), yeast two-hybrid bait in pGBKT7 DNA-BD vector (receptor, not shown: small tags and cut ends)
chain: MAGGNEVNLNECKRIVPLNTWVLISNFKLAYKVLRRPDGSFNRDLAEFLDRKVPANSFPLDGVFSFDHVDSTTNLLTRIYQPASLLHQTRHGTLELTKPLSTTEIVPVLIFFHGGSFTHSSANSAIYDTFCRRLVTICGVVVVSVDYRRSPEHRYPCAYDDGWNALNWVKSRVWLQSGKDSNVYVYLAGDSSGGNIAHNVAVRATNEGVKVLGNILLHPMFGGQERTQSEKTLDGKYFVTIQDRDWYWRAYLPEGEDRDHPACNPFGPRGQSLKGVNFPKSLVVVAGLDLVQDWQLAYVDGLKKTGLEVNLLYLKQATIGFYFLPNNDHFHCLMEELNKFVHSIEDSQSKSSPVLLTP
notes: Bait fusion for the Y2H assays; also called Arabidopsis GID1
B2: the binding result in assay [3] was “binds”.

The values are drawn from patent publication US20090031441A1 (NATIONAL UNIVERSITY CORPORATION NAGOYA UNIVERSITY, published 2009).
